{"source": "paper PMC11661142", "about": "(bioRxiv, 2024)", "binders": {"B1": {"name": "ScPex6 (His-Pex6), S. cerevisiae (natural protein)", "chain": "MKASLTFSLSGIYAPCSISRDIYLEYGDKKAECLYGTIRLPQYGPGCTPGKIVHCVLDDSLPFCSIVVPSKLFGFMPTQPTMDFCYFEPILDNVVPVLDSVTFLINEQLYSKLMDLPQEMQQIQFLHYKYNINSMETVVHSRDILTSGLCQILNCSPFPQGLVDFTETQLILVNDTEQKLSALKYANEDEEYALPKIGTNSALSIDLESLPCTISRDLLRPAPHINDDNSIYAFTDAETLLRLDVTSGSFITVSNMGCVRLVKLFVLLLPNGFKKRTIYAPPKIIASFPDCSVVTISKSNIGHTDIPIANQVFISRVGGWLQSQKCFQNIILTTLKKFFSESKRILCQNDLIPIAFDSSMADLNIAEENDESDDEDELGQYYKNDSLVWFFVTSAELDCFSKDNSHFIIDPNRTKLITTNITNRRPLPLSRSNLQRYYGFAETFYYDLHIFPYVRQLVNILETSFNCSQRGITLNASVLLHSTTNNVGKATMVRFASKYLGIHLLEIDCLSLTSNSRQLDSTSKIIGYIRAKCENVLPYASPAVIFLAHLDSILLDVNANQDPEAIKLQKSINFEMSKLLDDFTFKFPGTTFVGSVNNIDNVPSSFRSHMRFEILVPVPSEAQRLRIFQWYLSSHELNRDVQQKVPVSYMDNISFSSLSSYSAGLTPLDIKSIVETARMTATARFYQESKKCGWLPQSILITQEDLSKATSKARNEFSVSIGAPQIPNVTWDDIGGIDFVKGEILDTIDMPLKHPELFTSGMKKRSGILFYGPPGTGKTLMAKAIATNFSLNFFSVKGPELLNMYIGESEANVRRVFQKAREAKPCVIFFDEIDSVAPKRGNQGDSGGVMDRIVSQLLAELDGMSTDADGVFVIGATNRPDLLDEALLRPGRFDKLLYLGIPDTDTKQLNILEALTRKFVLDNDVKLIELAKLCPFNYTGADFYALCSDAMLNAMSRIARMVEKKVSQHNELTGENISTRRWFDKIATKEDTKVVVKMEDFLKAQEQLTPSVSRAELNHYEAVRANFEGA"}}, "key": {"[1]": {"biological_target": "T1, ScPex1^WT (Pex1-FLAG), S. cerevisiae (S. cerevisiae, UniProt P24004 1-1043)", "T1 sequence": "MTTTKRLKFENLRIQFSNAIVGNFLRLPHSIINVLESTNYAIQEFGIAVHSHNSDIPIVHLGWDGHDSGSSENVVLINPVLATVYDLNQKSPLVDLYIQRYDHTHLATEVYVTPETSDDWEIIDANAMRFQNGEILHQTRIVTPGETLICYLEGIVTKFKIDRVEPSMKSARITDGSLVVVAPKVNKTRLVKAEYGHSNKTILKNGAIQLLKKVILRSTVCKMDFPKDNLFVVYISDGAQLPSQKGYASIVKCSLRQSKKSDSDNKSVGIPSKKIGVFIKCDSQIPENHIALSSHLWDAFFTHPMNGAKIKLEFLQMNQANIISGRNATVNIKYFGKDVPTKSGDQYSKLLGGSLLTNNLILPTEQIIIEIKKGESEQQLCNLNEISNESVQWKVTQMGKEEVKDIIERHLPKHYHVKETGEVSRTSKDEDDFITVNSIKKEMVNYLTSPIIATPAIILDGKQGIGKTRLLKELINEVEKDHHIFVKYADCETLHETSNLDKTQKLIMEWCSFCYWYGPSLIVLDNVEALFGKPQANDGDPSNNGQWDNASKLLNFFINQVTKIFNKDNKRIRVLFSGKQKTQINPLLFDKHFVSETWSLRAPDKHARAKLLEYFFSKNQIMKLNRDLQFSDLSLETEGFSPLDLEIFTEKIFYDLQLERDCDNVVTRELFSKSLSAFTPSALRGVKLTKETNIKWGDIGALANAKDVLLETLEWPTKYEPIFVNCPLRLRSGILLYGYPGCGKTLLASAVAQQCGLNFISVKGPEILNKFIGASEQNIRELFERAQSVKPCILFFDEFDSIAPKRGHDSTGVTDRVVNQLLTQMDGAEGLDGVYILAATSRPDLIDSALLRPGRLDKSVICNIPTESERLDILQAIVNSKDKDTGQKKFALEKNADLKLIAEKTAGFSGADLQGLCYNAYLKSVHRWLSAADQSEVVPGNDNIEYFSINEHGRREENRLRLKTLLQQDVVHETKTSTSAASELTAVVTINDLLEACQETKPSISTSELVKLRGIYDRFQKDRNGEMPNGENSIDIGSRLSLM", "assay": "SEC"}, "[2]": {"biological_target": "T2, ScPex1^G700D (Pex1-FLAG G700D), S. cerevisiae (S. cerevisiae, UniProt P24004 1-1043, G700D)", "T2 sequence": "T1 sequence with G700D", "assay": "SEC"}}, "note": "Positions count from the first letter of the chain named.", "data": [{"binder": "B1", "values": [{"measurement": "binding result", "setting": "[1]", "value": "binds"}, {"measurement": "binding result", "setting": "[2]", "value": "binds"}]}]}
